Data taken from article PMC3573263 (Chemical biology & drug design, 2013).
[ ]: non-standard residue; d: D form. The star is where a group is joined. Biotin = O=C1N[C@H]2[C@H](CS[C@H]2CCCCC(=O)*)N1; pY = N[C@@H](Cc1ccc(OP(=O)(O)O)cc1)C(=O)O

Biological target: YopH PTPase domain (active catalytic domain, residues 164-468), wild type (Yersinia pestis, UniProt O68720 164-468)
Experiment: SPR

B1: biotinylated pTyr-EGFR peptide, biotin-LVDADEpYLIPQQG-COOH (peptide)
peptide: Biotin-LVDADE[pY]LIPQQG-OH
SMILES: CC[C@H](C)[C@H](NC(=O)[C@H](CC(C)C)NC(=O)[C@H](Cc1ccc(OP(=O)(O)O)cc1)NC(=O)[C@H](CCC(=O)O)NC(=O)[C@H](CC(=O)O)NC(=O)[C@H](C)NC(=O)[C@H](CC(=O)O)NC(=O)[C@@H](NC(=O)[C@H](CC(C)C)NC(=O)CCCC[C@@H]1SC[C@@H]2NC(=O)N[C@@H]21)C(C)C)C(=O)N1CCC[C@H]1C(=O)N[C@@H](CCC(N)=O)C(=O)N[C@@H](CCC(N)=O)C(=O)NCC(=O)O
Q: What does the source list for B1?
A: koff: 0.0214 s⁻¹; kon: 34.9 M⁻¹ s⁻¹
